Measurements: patent publication US7524668 (ELAN PHARMACEUTICALS, dated 2009)
Non-standard residues stand in square brackets, D forms with d. No end group written: not given here. Sta = CC(C)C[C@H](N)[C@@H](O)CC(=O)O

Experiments:
[1] = biological target: T1, CHO cell expressed recombinant human beta secretase proteolytically cleaved with HIV protease (human, UniProt P56817 61-453); test: affinity chromatography on peptide-coupled resin
T1 construct: N-terminus at V40 after cleavage of the F39-V40 bond; also called HIV-1 protease treated beta secretase; HIV protease treated CHO produced beta secretase

[2] = biological target: T2, pET11a-T7.Tag-Gly-Ser-Met-(A-GV...QTDES) E. coli expressed recombinant human BACE (human, UniProt P56817 14-453); test: affinity chromatography on peptide-coupled resin, bound at pH 4.5, eluted at pH 8.5
T2 construct: The construct carries an N-terminal T7 tag; also called pET11a-BACE; beta secretase

[3] = biological target: T3, pQE80L-Met-Arg-Gly-Ser-(His)6-Gly-Ser-Ile-Glu-Thr-Asp-(TQH...QTDES) E. coli expressed recombinant human BACE (human, UniProt P56817 22-453); test: as above
T3 construct: N-terminal His6 tag is part of the construct; also called pQE80L-BACE; pQE-80-BACE

[4] = biological target: T4, pQE70-Met-Arg-Gly-Ser-Phe-Val-Glu-...Thr-Asp-Glu-Ser-Arg-Ser-(His)6 E. coli expressed recombinant human BACE (human, UniProt P56817 57-453); test: affinity chromatography on peptide-coupled resin, bound at acidic pH, eluted at pH 8.5
T4 construct: C-terminal His6 tag is part of the construct; also called pQE70-BACE
Procedure: Prior to purification, the pH of the refolded protein was lowered from about 10 to 8.5 with HCl. The solution was loaded onto three 50 ml Q-Sepharose columns (Pharmacia Biotech XK 50). The columns were pre-equilibrated in 0.4 M Urea, 10 mM AMPSO, pH 8.5. After refolded protein was loaded onto the columns, they were washed with 500 ml of 0.4 M Urea, 10 mM TRIS, pH 8.2. The columns were eluted with 180-245 ml of 0.75 M NaCl in 0.4 M Urea 10 mM TRIS buffer, pH 8.2. The eluates were then dialyzed versus 20 mM HEPES, pH 8.0. The samples were then removed from dialysis and dropped into 1 M NaMES, pH 5.7 (0.1 M final concentration). After centrifugation (20 Kxg) the supernatant was dropped into 1 M Na-acetate, 1 M NaMES, pH 5.0 (0.2 M Na-acetate, 0.28 M Na-MES was the final concentration). […] This solution was then applied to a 15 ml affinity column equilibrated at the same pH. The column was washed with 6 column volumes of 20 mM sodium acetate buffer pH 4.5, 150 mM NaCl. BACE was eluted at pH 8.5 using about 50 ml of 0.1 M borate buffer. […] Purified pQE70-BACE was dialyzed into 100 mM NaBorate pH 8.5.

Measured: binding result

T1 sequence (P56817 other isoform, or with tags, fused parts or gaps limits assumed): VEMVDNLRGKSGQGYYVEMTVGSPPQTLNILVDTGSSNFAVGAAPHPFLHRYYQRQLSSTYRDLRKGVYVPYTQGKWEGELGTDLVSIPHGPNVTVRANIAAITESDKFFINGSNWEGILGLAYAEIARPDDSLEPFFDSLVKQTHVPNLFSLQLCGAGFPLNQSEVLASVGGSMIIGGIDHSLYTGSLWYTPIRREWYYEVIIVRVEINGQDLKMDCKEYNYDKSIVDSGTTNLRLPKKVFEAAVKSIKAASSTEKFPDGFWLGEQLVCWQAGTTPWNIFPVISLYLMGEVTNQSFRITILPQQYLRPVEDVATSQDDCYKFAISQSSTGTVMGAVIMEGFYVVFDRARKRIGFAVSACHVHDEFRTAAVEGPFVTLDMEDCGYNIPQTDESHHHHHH
T4 sequence (P56817 other isoform, or with tags, fused parts or gaps limits assumed): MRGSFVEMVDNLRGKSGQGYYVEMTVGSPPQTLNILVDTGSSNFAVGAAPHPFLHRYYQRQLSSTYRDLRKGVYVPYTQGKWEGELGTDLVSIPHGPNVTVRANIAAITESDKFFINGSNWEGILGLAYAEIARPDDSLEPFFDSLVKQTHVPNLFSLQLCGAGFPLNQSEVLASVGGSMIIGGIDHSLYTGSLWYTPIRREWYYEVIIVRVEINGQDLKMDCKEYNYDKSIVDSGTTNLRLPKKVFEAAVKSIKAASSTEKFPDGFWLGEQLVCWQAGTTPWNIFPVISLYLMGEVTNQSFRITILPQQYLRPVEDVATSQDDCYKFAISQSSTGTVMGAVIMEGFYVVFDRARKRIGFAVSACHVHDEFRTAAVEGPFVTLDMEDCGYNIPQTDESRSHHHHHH
T3 sequence (P56817 other isoform, or with tags, fused parts or gaps limits assumed): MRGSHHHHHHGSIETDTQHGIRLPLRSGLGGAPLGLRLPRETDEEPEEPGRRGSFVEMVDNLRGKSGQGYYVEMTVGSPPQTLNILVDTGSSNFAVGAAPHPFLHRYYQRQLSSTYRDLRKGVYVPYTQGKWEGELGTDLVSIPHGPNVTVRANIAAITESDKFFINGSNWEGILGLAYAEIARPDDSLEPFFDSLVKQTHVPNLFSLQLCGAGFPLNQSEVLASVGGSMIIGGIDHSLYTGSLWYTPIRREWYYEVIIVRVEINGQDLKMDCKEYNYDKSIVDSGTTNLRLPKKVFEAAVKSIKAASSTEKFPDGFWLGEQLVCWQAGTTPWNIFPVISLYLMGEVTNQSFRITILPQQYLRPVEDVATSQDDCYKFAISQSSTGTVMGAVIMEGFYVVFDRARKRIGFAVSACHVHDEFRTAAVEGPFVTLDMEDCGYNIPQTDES
T2 sequence (P56817 other isoform, or with tags, fused parts or gaps limits assumed): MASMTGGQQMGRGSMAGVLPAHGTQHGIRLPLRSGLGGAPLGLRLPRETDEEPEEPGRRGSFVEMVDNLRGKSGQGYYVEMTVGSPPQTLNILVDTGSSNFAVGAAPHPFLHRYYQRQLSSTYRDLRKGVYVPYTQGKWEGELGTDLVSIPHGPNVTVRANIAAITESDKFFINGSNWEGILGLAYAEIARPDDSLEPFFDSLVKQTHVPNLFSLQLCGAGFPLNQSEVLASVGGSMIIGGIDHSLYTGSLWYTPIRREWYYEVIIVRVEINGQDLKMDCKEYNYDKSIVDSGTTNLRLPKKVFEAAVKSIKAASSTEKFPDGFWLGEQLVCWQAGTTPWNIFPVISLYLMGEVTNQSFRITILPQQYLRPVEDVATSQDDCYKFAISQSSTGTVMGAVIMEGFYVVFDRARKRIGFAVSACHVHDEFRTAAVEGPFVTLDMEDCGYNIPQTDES

SEVN[Sta]VAEFRGGC (also: coupled to Sulfolink resin via Cys) [synthetic peptide Ser-Glu-Val-Asn-Sta-Val-Ala-Glu-Phe-Arg-Gly-Gly-Cys (where Sta=statine)]
binds: all assays above
